Source: the Human Domainome abundance scans (Beltran et al. 2025)
± gives the uncertainty stated by the source.

B1: Nuclear receptor subfamily 1 group D member 2, residues 103 to 171; numbered along this chain, Q14995 (parent)
chain: CKVCGDVASGFHYGVHACEGCKGFFRRSIQQNIQYKKCLKNENCSIMRMNRNRCQQCRFKKCLSVGMSR

Variants of: B1
Assay: abundance fitness (aPCA) (normalised: wild type 0, dead -1); higher = more abundant; growth selection in yeast, the domain comes from the species named
Details: Homo sapiens

Abundance fitness: each site, then its substitutions
E19: Q -0.699 ± 0.26; T -0.478 ± 0.28; M -0.884 ± 0.43; P -0.465 ± 0.42; G -0.63 ± 0.19; Y -0.394 ± 0.36; V -0.669 ± 0.37; W -0.325 ± 0.17; D 0.114 ± 0.21; S -0.583 ± 0.18; L -0.858 ± 0.32; R -0.058 ± 0.27
I29: K -0.98 ± 0.29; L -0.19 ± 0.066; Y -0.813 ± 0.36; V -0.17 ± 0.075; M -0.14 ± 0.12; W -0.412 ± 0.13; N -0.058 ± 0.28; F -0.081 ± 0.18; S -0.7 ± 0.067; G -0.821 ± 0.13; T -0.282 ± 0.091; A -0.723 ± 0.14; E -0.675 ± 0.21; R -0.601 ± 0.11; Q -0.339 ± 0.1; C -0.388 ± 0.17
F24: V -0.81 ± 0.15; G -0.798 ± 0.17; A -1.09 ± 0.34; T -0.422 ± 0.21; E -0.68 ± 0.23; L -0.272 ± 0.16; W -0.723 ± 0.23; R -0.924 ± 0.19; K -1.04 ± 0.46; P -0.52 ± 0.47; Q -0.664 ± 0.41; I -1.02 ± 0.42; N -0.908 ± 0.37; S -0.661 ± 0.3
C18: M -0.537 ± 0.42; L -0.692 ± 0.17; G -0.813 ± 0.14; V -0.79 ± 0.31; W -0.752 ± 0.29; R -0.751 ± 0.14; Q -0.874 ± 0.22; I -0.355 ± 0.4; K -0.829 ± 0.32; A -0.515 ± 0.18; E -0.847 ± 0.3; S -0.812 ± 0.28
S28: G -0.748 ± 0.26; K -0.801 ± 0.49; W -0.733 ± 0.39; C 0.179 ± 0.14; V -0.419 ± 0.21; M -0.291 ± 0.42; T 0.24 ± 0.37
G23: D 0.195 ± 0.34; V -0.041 ± 0.47; R -0.087 ± 0.5
Q30: R -0.557 ± 0.16; V -0.092 ± 0.098; F -0.634 ± 0.3; M -0.521 ± 0.41; D 0.022 ± 0.16; K -0.195 ± 0.17; P -0.523 ± 0.32; A 0.04 ± 0.096; N -0.43 ± 0.49; S -0.364 ± 0.21; T 0.126 ± 0.17; I -0.553 ± 0.5; L -0.023 ± 0.095
R27: V 0.094 ± 0.096; M 0.073 ± 0.19; F -0.581 ± 0.33; E 0.216 ± 0.25; N 0.237 ± 0.32; K -0.275 ± 0.21; S -0.51 ± 0.23; T -0.034 ± 0.24; D 0.126 ± 0.19; G -0.433 ± 0.12; L -0.154 ± 0.13; H 0.305 ± 0.27; W 0.091 ± 0.23
A17: S -0.346 ± 0.1; R -0.887 ± 0.16; W -0.702 ± 0.18; T -0.392 ± 0.14; P -0.962 ± 0.3; Q -0.902 ± 0.32; V -0.222 ± 0.058
G20: D 0.531 ± 0.19; S 0.212 ± 0.27
Q31: K -0.391 ± 0.25; G -0.152 ± 0.072; S -0.207 ± 0.12; D -0.278 ± 0.18; W -0.465 ± 0.12; I -0.635 ± 0.29; L -0.169 ± 0.11; N -0.475 ± 0.37; A -0.51 ± 0.099; M -0.262 ± 0.15; F 0.04 ± 0.2; E 0.197 ± 0.1; T -0.238 ± 0.11; R -0.289 ± 0.075; C -0.551 ± 0.15; P -0.457 ± 0.15; Y -0.276 ± 0.18; V -0.623 ± 0.13
R26: A 0.133 ± 0.058; M 0.319 ± 0.42; F -0.326 ± 0.43; W 0.408 ± 0.069; V -0.383 ± 0.16; E -0.032 ± 0.15; N 0.135 ± 0.18; K -0.349 ± 0.34; H -0.359 ± 0.41; L -0.226 ± 0.14; Q 0.214 ± 0.15; T 0.092 ± 0.17; I 0.342 ± 0.22; G -0.092 ± 0.091; Y -0.246 ± 0.24
N32: L -0.706 ± 0.099; E 0.176 ± 0.083; V -0.672 ± 0.084; G -0.074 ± 0.046; Y -0.776 ± 0.17; S -0.381 ± 0.072; A -0.343 ± 0.077; D -0.199 ± 0.093; W -0.891 ± 0.12; R -0.423 ± 0.068; T -0.414 ± 0.092; F -0.408 ± 0.14; H -0.566 ± 0.14; K -0.401 ± 0.11; Q 0.144 ± 0.12; C -0.612 ± 0.2; M -0.44 ± 0.14; I -0.329 ± 0.12
I33: D -0.708 ± 0.088; A -0.377 ± 0.058; C -0.591 ± 0.097
F25: S -0.609 ± 0.16; R -0.646 ± 0.19; E -0.634 ± 0.48; D -0.696 ± 0.42; A -0.72 ± 0.2; P -0.836 ± 0.41; N -0.647 ± 0.47; Q -0.797 ± 0.23; G -0.86 ± 0.28; V -0.785 ± 0.22; L -0.752 ± 0.19; I -0.152 ± 0.18; W -0.332 ± 0.23; Y -0.481 ± 0.39
